# Earlier results in PMC6690345.
# Molecular target: integrin αIIbβ3 (Homo sapiens) (UniProt P08514)
# Experiment: SPR
row,Kd [µM],Substance
1,21,ERp5 (from UniProt Q15084)
2,1,PDI (from UniProt P07237)
